Reference: US20160324962A1, “COMPOSITIONS AND METHODS FOR TREATING SARCOMA” (MEDIMMUNE, LLC, priority 2013, published 2016)

Assays:
SK-ES-1 cells = experiment: In vitro cell proliferation (CellTiter-Glo), no exogenous IGF; assay type: cell-based; conditions: 3 days
Protocol: (§1) To determine the effect of treatment with MEDI-573 antibody on the growth of tumor cells, three rhabdomyosarcoma cell lines (RD, SJCRH30, and Hs729); three Ewing's sarcoma cell lines (RD-ES, TC-71, and SK-ES-1), and four osteosarcoma cell lines (SJSA-1, KHOS, MG-63, and SAOS2) were treated with MEDI-573, an anti-IGF antibody, in the absence of exogenous IGF-1 or IGF-2.
(§2) Sarcoma cell lines were cultured overnight in regular growth medium. The following day, medium containing 0.1% charcoal stripped fetal bovine serum (FBS) was added and the cells incubated overnight. The next day, cells were treated with various amounts of MEDI-573 and the cultures incubated for 3 days. Proliferation was quantified using the CellTiter-Glo (CTG) reagent (Promega, Madison, Wis.).

Hs729 cells = experiment: as above; assay type: cell-based; conditions: 3 days
Protocol: as §1, §2

SJCRH30 cells = experiment: as above; assay type: cell-based; conditions: 3 days
Protocol: as §1, §2

RD-ES cells [1] = experiment: as above; assay type: cell-based; conditions: 3 days
Protocol: as §1, §2

MG-63 cells = experiment: as above; assay type: cell-based; conditions: 3 days
Protocol: as §1, §2

SAOS2 cells = experiment: as above; assay type: cell-based; conditions: 3 days
Protocol: as §1, §2

KHOS cells [2] = experiment: as above; assay type: cell-based; conditions: 3 days
Protocol: as §1, §2

TC-71 cells [3] = experiment: as above; assay type: cell-based; conditions: 3 days
Protocol: as §1, §2

Akt phosphorylation = experiment: pAKT assay in sarcoma cells (MSD); assay type: cell-based; conditions: RD-ES, TC-71, SK-ES-1, and SJSA-1 cells
Protocol: (§3) When exogenous IGF-1 or IGF-2 was added to cells, there was an induction of phosphorylation of IGF-1R and IR-A in all cells examined.
(§4) The sarcoma lines were cultured overnight in complete medium. The following day, medium containing 0.1% charcoal stripped fetal bovine serum (FBS) was added to the cultures and the cultures incubated overnight. The next day, cells were treated with various treatments for 5 minutes. Media was removed; cells were washed and lysed with 1.0% Triton X lysis buffer with protease and phosphatase inhibitors. Approximately 8-20 μg of total protein was loaded on MSD 96-Well MULTI-SPOT plates and the level of total and phosphorylated IGF-1R, IR-A and IRS-1 protein was determined using the Insulin Signaling Panel (total protein) and Insulin Signaling Panel (phosphoprotein) Whole Cell Lysate kits according to the manufacturers protocol. The level of total and phosphorylated AKT was determined using the Phospho (Ser473)/Total AKT Assay Whole Cell Lysate kit according to manufacturer's standard protocol.

[4] = Body weight / tolerability in xenograft mice; assay type: in vivo; conditions: MEDI-573 alone
From the text: Although proliferation of SK-ES-1 and SJCRH30 cells was inhibited by MEDI-573 in vitro in the absence of exogenous IGFs, the in vivo growth of these two models was not effected by MEDI-573 treatment.
The combination treatments were tolerated as no significant body weight loss was observed (FIG. 17B).

IGF-1 in RD-ES tumors = target: T1, IGF-1 in RD-ES tumors (Homo sapiens, UniProt P05019); experiment: Free IGF ligands in xenograft tumors (ELISA); assay type: in vivo, mice; conditions: different amounts of MEDI-573
T1 construct: endogenous in cells; host or cells: RD-ES (Ewing's sarcoma) xenograft tumors in athymic nude mice
Protocol: Free IGF ligands were measured in xenograft tumors in untreated mice and in mice treated with different amounts of MEDI-573. […] Despite KHOS cells being unresponsive to IGF-1 and/or IGF-2 stimulation, IGF-2 levels were examined in a KHOS/NP model.
Sarcoma cell lines were purchased from American type Culture Collection (Manassas, Va.). CellTiter-Glo reagents were obtained from Promega (Madison, Wis.). Whole cell lysate kits for pIGF-1R, pIR-A, and pAKT were purchased from Meso Scale Discovery (MSD; Rockville, Md.). ELISA kits for total IGF-1 and IGF-1R were purchased from R&D Systems (Minneapolis, Minn.). ELISA kits for total IGF-2 were purchased from Insight Genomics (Falls Church, Va.). An ELISA kit for detecting free IGF-1 and IGF-2 was developed in house. Human IGF-1 and IGF-2 were obtained from R&D Systems (Minneapolis, Minn.). Antibodies for detecting phospho-AKT, phospho-4EBP1, phospho-S6K, and GAPDH were from Cell Signaling Technology (Beverly, Mass.).

IR-A phosphorylation = experiment: pIR-A assay in sarcoma cells (MSD); assay type: cell-based
Protocol: as §3, §4

IGF 1R phosphorylation = experiment: IGF-stimulated phosphorylation in engineered NIH-3T3 cell lines; assay type: cell-based; conditions: NIH-3T3 cell lines expressing human IGF-1R and human IGF-1/-2
From the text: MEDI 573 selectively binds to human insulin-like growth factor (hIGF)-I and hIGF-2 and […]. MEDI-573 targets the IGF-1 and IGF-2 ligands and thereby inhibits IGF-mediated signal transduction. […] Furthermore, MEDI-573 has potential to achieve this without perturbing glucose homeostasis, which has been an adverse effect observed with investigational agents that target IGF 1R. The results of in vitro studies have shown that MEDI-573 inhibited both IGF-1 and IGF-2-stimulated phosphorylation of IGF 1R and that of downstream signaling proteins including Akt and MAPK in a number of engineered mouse embryonic fibroblast NIH-3T3 cell lines transfected to express human IGF-1R and either human IGF-1/-2. Furthermore, MEDI-573 inhibited autocrine phosphorylation of these signaling molecules.

SJSA-1 cells = experiment: Activation of caspase-3 and caspase-7; assay type: cell-based; conditions: increasing concentrations, 48 hours, compared to isotype control
Protocol: (§5) To evaluate the basis for the cytotoxic effect of MEDI-573 on RD-ES, TC-71, SJSA-1, and KHOS cells, cells were treated with increasing concentrations of MEDI-573 for 48 hours and analyzed by measuring the activation of caspase-3 and caspase-7. […] (Data not shown.)

RD-ES cells [5] = experiment: Activation of caspase-3 and caspase-7; assay type: cell-based; conditions: increasing concentrations, 48 hours, compared to isotype control
Protocol: as §5

KHOS cells [6] = experiment: Activation of caspase-3 and caspase-7; assay type: cell-based; conditions: increasing concentrations, 48 hours
Protocol: as §5

TC-71 cells [7] = experiment: Activation of caspase-3 and caspase-7; assay type: cell-based; conditions: increasing concentrations, 48 hours, compared to isotype control
Protocol: as §5

T1 sequence (P05019 49-118): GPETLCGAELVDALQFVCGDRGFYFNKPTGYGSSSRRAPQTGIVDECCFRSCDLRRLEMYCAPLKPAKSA

B1: MEDI-573: fully human monoclonal IgG2 lambda antibody that binds IGF-2 with cross reactivity to IGF-1; hybridoma 7.159.2, ATCC PTA-7424 (antibody)
heavy: QVQLVQSGAEVKKPGASVKVSCKASGYTFTSYDINWVRQATGQGLEWMGWMNPNSGNTGYAQKFQGRVTMTRNTSISTAYMELSSLRSEDTAVYYCARDPYYYYYGMDVWGQGTTVTVSSASTKGPSVFPLAPCSRSTSESTAALGCLVKDYFPEPVTVSWNSGALTSGVHTFPAVLQSSGLYSLSSVVTVPSSNFGTQTYTCNVDHKPSNTKVDKTVERKCCVECPPCPAPPVAGPSVFLFPPKPKDTLMISRTPEVTCVVVDVSHEDPEVQFNWYVDGVEVHNAKTKPREEQFNSTFRVVSVLTVVHQDWLNGKEYKCKVSNKGLPAPIEKTISKTKGQPREPQVYTLPPSREEMTKNQVSLTCLVKGFYPSDIAVEWESNGQPENNYKTTPPMLDSDGSFFLYSKLTVDKSRWQQGNVFSCSVMHEALHNHYTQKSLSLSPGK
light: QSVLTQPPSVSAAPGQKVTISCSGSSSNIENNHVSWYQQLPGTAPKLLIYDNNKRPSGIPDRFSGSKSGTSATLGITGLQTGDEADYYCETWDTSLSAGRVFGGGTKLTVLGQPKAAPSVTLFPPSSEELQANKATLVCLISDFYPGAVTVAWKADSSPVKAGVETTTPSKQSNNKYAASSYLSLTPEQWKSHRSYSCQVTHEGSTVEKTVAPTECS
With B1 the IC50 (SK-ES-1 cells) was 3.2 µM, the “IC50 (μM)” value (Hs729 cells) was “Inactive” and the IC50 (SJCRH30 cells) was 3.2 µM. The IC50 (RD-ES cells [1]) was 6.9 µM, the “IC50 (μM)” value (MG-63 cells) was “Inactive” and the “IC50 (μM)” value (SAOS2 cells) was “Inactive”. The “IC50 (μM)” value (KHOS cells [2]) was “Inactive”, the IC50 (TC-71 cells [3]) was 2.7 µM and the “IGF-1 and IGF-2 stimulated phosphorylation of Akt” value (Akt phosphorylation) was “blocks this effect”. For the same molecule, the “autophosphorylation of Akt” value (Akt phosphorylation) was “inhibited autophosphorylation”, the body weight [4] was “no loss of body weight was observed” and the “free IGF-1 in tumors” value (IGF-1 in RD-ES tumors) was “dose-dependent suppression”. The “autophosphorylation of IR-A” value (IR-A phosphorylation; KHOS cells) was “not in KHOS cells”, the “autophosphorylation of IR-A” value (IR-A phosphorylation; RD-ES, TC-71, SK-ES-1, and SJSA-1 cells) was “inhibited autophosphorylation” and the “IGF-1/-2-induced activation of IR-A” value (IR-A phosphorylation; pretreatment with MEDI-573, exogenous IGF-1 or IGF-2) was “inhibited”. For the same molecule, the “IGF-1 and IGF-2-stimulated phosphorylation of IGF 1R” value (IGF 1R phosphorylation) was “inhibited”, the caspase-3/-7 activities (SJSA-1 cells) was “increased caspase-3/-7 activities in a dose-dependent manner” and the caspase-3/-7 activities (RD-ES cells [5]) was “increased caspase-3/-7 activities in a dose-dependent manner”. For the same molecule, the caspase-3/-7 activities (KHOS cells [6]) was “No activation of caspase-3/-7 was detected” and the caspase-3/-7 activities (TC-71 cells [7]) was “increased caspase-3/-7 activities in a dose-dependent manner”.
